The values that follow come from patent US20220233638A1.

For the assay, the target named is canine LILRB3 (ENSCAFG00000028453) on normal MDCK cells (dog). In words: cell-based or functional assay.
Chain of canine LILRB3 (ENSCAFG00000028453) on normal MDCK cells (dog) (chain, as listed by the source limits assumed, form in doubt): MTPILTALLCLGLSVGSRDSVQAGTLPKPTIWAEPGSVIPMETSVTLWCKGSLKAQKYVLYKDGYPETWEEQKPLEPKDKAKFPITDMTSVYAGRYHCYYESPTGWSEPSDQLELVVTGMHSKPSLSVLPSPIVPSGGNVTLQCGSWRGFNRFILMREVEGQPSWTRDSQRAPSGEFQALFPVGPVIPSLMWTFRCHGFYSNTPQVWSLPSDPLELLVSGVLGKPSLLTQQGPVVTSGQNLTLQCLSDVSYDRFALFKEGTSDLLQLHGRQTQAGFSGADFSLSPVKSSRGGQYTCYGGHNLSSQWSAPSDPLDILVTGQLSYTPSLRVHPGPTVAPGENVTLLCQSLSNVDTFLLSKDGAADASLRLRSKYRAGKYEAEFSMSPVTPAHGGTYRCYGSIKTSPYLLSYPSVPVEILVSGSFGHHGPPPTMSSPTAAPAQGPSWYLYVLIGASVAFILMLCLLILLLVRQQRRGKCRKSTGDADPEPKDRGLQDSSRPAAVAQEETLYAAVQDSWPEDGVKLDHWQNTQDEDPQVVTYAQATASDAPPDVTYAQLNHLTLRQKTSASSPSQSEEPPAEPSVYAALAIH

As for “recombinant protein DLA88-α3 (from UniProt P18466 207-299) (ligand)”, the residual rate of SCRB^KD (Scribble knockdown) MDCK cells in mixed culture with normal MDCK cells, 24 hr came to 20%.
